Source: patent publication US20260028391A1 (HUMABS BIOMED, published 2026)
Positions count from the first letter of the chain named.

B1: MPK130 (antibody, V domains shown)
VH: EVQLVESGGGLVKPGGSLTLSCEASGFSISGYYMIWVRQAPGKGLEWVSSISASDTYIDYAVSVQGRFTISRHNTKNSLYLQMSSLRVEDTGVYYCTREKVPSPGPFDCWGQGTLVTVSS
VL: QSVLTQPPSVSGAPGQRITISCTGTSSNIGAGYDVHWYQHLPGAAPRLLIYVNTNRPSGVPDRFSGARSGTSASLAITGLQAEDEADYYCQSYDRSLGGWAFGEGTKVTVL
B2: RSD5-FR-GL-rIgG1 (antibody, V domains shown)
VH: QVQLVESGGGVVQPGRSLRLSCAASGFAFNNFAMHWVRQAPGKGLEWVAVVSYDGTSPYYADSVKGRFTISRDNSKNTLYLQMNSLRAEDTAVYYCARGLGSGSYSWIGYFYAMDVWGQGTTVTVSS
VL: QSALTQPASVSGSPGQSITISCTGTSSDVGGYVYVSWYQQHPGKAPKLMIYDVSNRPSGVSNRFSGSKSGNTASLTISGLQAEDEADYYCISYTDRNTVVFGGGTKLTVL
notes: Germline-reverted version of RSD5 (framework regions), recombinant IgG1; also called RSD5-FR-GL-rlgG1
B3: MPK65-v2-v1.2 (antibody, V domains shown)
VH: QVPLVQSGAEVKKPGESLKISCKGSGYSFINYWIGWVRQMPGKGLEWMGVIYPFDSDTKYSPSFQGHVTISADKSSNTAYVQWSSLKASDTAMYYCARFTFGIAVVTDDVSGEGQAFEIWGQGTMVTVSS
VL: QIVMMQSPATLSVSPGERATLSCRASQSVAGNLAWYQQRPGQAPRLLIYGASTRATGVPARFSGSGSETEFTLTISSLQSEDFAVYYCHQYSNLPQAFGQGTRLDIK
B4: MPK201-v1.2 (antibody, V domains shown)
VH: EVQLVQSGAEVKKPGESLKISCQGSGYSFINYWIGWVRQKPGKGLEWMGIIYPFDSETKYSPSFQGHVTFSADKSINTAYVQWSSLRASDTAMYYCARFTFGLAVTTADVSGEGQAFEIWGQGTMVTVSS
VL: B3 VL with I48V, T56S, Q90H, N93D
B5: MPK201-v4.1 (antibody, V domains shown)
VH: B4 VH with E1Q, N31S
VL: B3 VL with Q1E, I48V, T56S, Q90H, N93D, L94W
B6: MPH12-v1 (VH C111/C112.2 variant of Tables 18 and 19) (antibody, V domains shown)
VH: QVQLVESGGGLVKPGGSLRLSCVASGFTFSGFYMKWIRQAPGKGLEWVSSISASGSYTNYADSVEGRFTVSRDNAKNSLFLLMSSLRAEDTAVYYCARGDSYSGASASHGEFFHKWGQGTLVTVSS
VL: QSVLTQPPSVSGAPGQRVTISCTGSDSNIGADFDVHWYQQLPGTAPKLLIYGNINRPSGVPDRFSGSRSGTSAFLAITRLQAEDEADYYCQSYDRSLHYVFGAGTKVTVL

How the values were obtained:
[1] = biological target: fusion glycoprotein of the MPV D280 used in the neutralization assay of Example 3 (metapneumovirus (strain )); assay: cell-based or functional assay
[2] = biological target: fusion glycoprotein of the RSV used in the neutralization assay of Example 1 (respiratory syncytial virus (strain not …)); assay: cell-based or functional assay
[3] = biological target: fusion glycoprotein (F) of MPV A GFP (Tables 41 and 43) (metapneumovirus A); assay: cell-based or functional assay
[4] = biological target: fusion glycoprotein (F) of RSV A GFP (Tables 41 and 42) (respiratory syncytial virus A); assay: cell-based or functional assay
[5] = biological target: fusion glycoprotein (F) of RSV B GFP (Tables 41 and 42) (respiratory syncytial virus B); assay: cell-based or functional assay
biot-RSV-F wt = biot-RSV-F wt (respiratory syncytial virus (RSV)); assay: BLI (Octet), biotinylated F on SA sensors, mAb 5 µg/ml
RSV-A F = biological target: T1, RSV-A F (RSV A); assay: BLI
T1 construct: also called RSV F A

RSV-B F = biological target: T2, RSV-B F (RSV B); assay: BLI
T2 construct: also called RSV F B

[6] = biological target: RSV A fusion glycoprotein (F), virus of the neutralisation assays of Tables 54 and 57 (RSV A); assay: cell-based or functional assay
RSV F B N208S = biological target: T3, RSV F B N208S (RSV B); assay: FACS, % binding to RSV F B variants
T3 construct: whole, on cells; also called mutant N208S

RSV F B, B Ref = biological target: T4, RSV F B, B Ref (RSV B); assay: FACS, % binding to RSV F B variants
T4 construct: whole, on cells

RSV F B N201S = biological target: T5, RSV F B N201S (RSV B); assay: FACS, % binding to RSV F B variants
T5 construct: whole, on cells

RSV F B K68N-N208S = biological target: T6, RSV F B K68N-N208S (RSV B); assay: FACS, % binding to RSV F B variants
T6 construct: whole, on cells

RSV F B K68N-N201S = biological target: T7, RSV F B K68N-N201S (RSV B); assay: FACS, % binding to RSV F B variants
T7 construct: whole, on cells

RSV F B N208D = biological target: T8, RSV F B N208D (RSV B); assay: FACS, % binding to RSV F B variants
T8 construct: whole, on cells

RSV F B S443P = biological target: T9, RSV F B S443P (RSV B); assay: FACS, % binding to RSV F B variants
T9 construct: whole, on cells; also called mutant S443P

RSV F A S443P-K445N = biological target: T10, RSV F A S443P-K445N (RSV A, strain A2, UniProt P03420 26-574); assay: FACS, % binding to RSV F A variants
T10 construct: whole, on cells

RSV F A G446E = biological target: T11, RSV F A G446E (RSV A, strain A2, UniProt P03420 26-574); assay: FACS, % binding to RSV F A variants
T11 construct: whole, on cells

RSV F A, A2 Ref = biological target: T12, RSV F A, A2 Ref (RSV A, strain A2, UniProt P03420 26-574); assay: FACS, % binding to RSV F A variants
T12 construct: whole, on cells

RSV F A L203I = biological target: T13, RSV F A L203I (RSV A, strain A2, UniProt P03420 26-574); assay: FACS, % binding to RSV F A variants
T13 construct: whole, on cells

DS-Cav1 RSV F = DS-Cav1 RSV F (respiratory syncytial virus (RSV); …, UniProt P13843 26-513); assay: ELISA on RSV-F Ds-Cav1, 1 ug/ml
[7] = biological target: fusion glycoprotein (F) of MPV A1/6621 (metapneumovirus A1/6621); assay: cell-based or functional assay

Binder	Kd (RSV-A F) [pM]	Kd (RSV-B F) [pM]	IC50, neutralization of RSVA [6] [ng/mL]	% binding (RSV F B N208S) [%]	% binding (RSV F B, B Ref) [%]	% binding (RSV F B N201S) [%]	% binding (RSV F B K68N-N208S) [%]	% binding (RSV F B K68N-N201S) [%]	% binding (RSV F B N208D) [%]	% binding (RSV F B S443P) [%]	% binding (RSV F A S443P-K445N) [%]	% binding (RSV F A G446E) [%]	% binding (RSV F A, A2 Ref) [%]	% binding (RSV F A L203I) [%]	other results
B1															MPV D280 Neutralization - IC50 [1]: 4.3 ng/mL; RSV Neutralization - IC50 [2]: 20.6 ng/mL
B2															IC50 (ng/ml), MPV A GFP neutralization [3]: > 2000 ng/mL; IC50 (ng/ml), RSV A GFP neutralization [4]: 1.27 ng/mL; IC50 (ng/ml), RSV B GFP neutralization [5]: 1.14 ng/mL; Kd (biot-RSV-F wt): 1460 pM
B3	205	581	4.38	0.041	56.4	35.9	0.047	30.8	0.47	33.8	33.5	25.4	56	18	
B4	211	161	2.88	14.4	61.3	47.7	12.1	47.3	0.015	45.8	36	29	66.9	40	
B5	292	552	4.35	0.016	51.9	33	0.048	30	0.018	31.5	2700	18	54.1	13.1	
B6															EC50 (read off the curve) (DS-Cav1 RSV F): ~100 ng/mL; MPV IC50 (nM), neutralization of MPV A1/6621 [7]: 5.87 nM
